{
  "source": "paper PMC11928058",
  "key": {"[1]": {"target": "Rap1 (mouse (endogenous in immortalized murine lung endothelial cells)) (UniProt P62835)", "sequence (P62835 whole entry)": "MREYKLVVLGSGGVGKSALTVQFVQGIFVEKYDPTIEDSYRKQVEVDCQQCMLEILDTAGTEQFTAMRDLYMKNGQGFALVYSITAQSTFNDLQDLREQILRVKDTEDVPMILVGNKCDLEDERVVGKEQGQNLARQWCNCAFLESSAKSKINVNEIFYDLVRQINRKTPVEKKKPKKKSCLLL", "test": "proximity ligation; Duolink PLA read by flow cytometry; immortalized murine lung endothelial cells in suspension, in the dark or with blue light for the indicated times, rabbit anti-SHANK3 and mouse anti-Rap1; signal as fold over a sample without primary antibodies; cells with SHANK3 shRNA as control"}, "[2]": {"target": "Rap1 (mouse (endogenous in immortalized murine lung endothelial cells)) (UniProt P62835)", "test": "proximity ligation; Duolink PLA read by flow cytometry; immortalized mouse endothelial cells expressing CIBN–GFP–CAAX and CRY2–mCherry–talin, in the dark or with blue light for 30 min at room temperature, fixed, permeabilized, stained with rabbit anti-mCherry and mouse anti-Rap1; with or without overexpressed mAzurite–FLAG–WT SPN"}},
  "data": [
    {"substance": "SH3 and multiple ankyrin repeat domains 3 (SHANK3) (from UniProt Q4ACU6 1-1730) (natural protein)", "values": [
      {"measurement": "PLA signal, fold over the same cells expressing SHANK3 shRNA", "setting": "[1]", "result": 3, "unit": "fold"}
    ]},
    {"substance": "CRY2–mCherry–talin (full-length mouse talin-1) (from UniProt P26039 1-2541) (natural protein)", "values": [
      {"measurement": "increase of the PLA signal with blue light over dark", "setting": "[2]", "result": 10, "unit": "%"},
      {"measurement": "percent reduction of the PLA signal of m4 with m2 after 30 min of blue light", "setting": "[1]", "result": 40, "unit": "%"}
    ]},
    {"substance": "mAzurite–FLAG–WT SPN (wild-type SPN domain of SHANK3) (domain or fragment)", "values": [
      {"measurement": "percent reduction of the PLA signal of m1 with m2", "setting": "[2]", "result": 70, "unit": "%"}
    ]}
  ]
}
